From the supplement of paper PMC10724198
± gives the standard deviation of the averaged measurements.
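Also: PSI is a weighted mean of sequencing reads over stability bins, variants kept only with over 10 reads, mCherry proximal and sfGFP distal, peptide attached via GGGS linker.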

These sequences were tested on Saccharomyces cerevisiae (assay: protein stability index of tFT-peptide fusion (C-terminal peptide) (PSI (0-1 scale)); higher = more stable (slower turnover)). Details: genetic background: das1 deletion; temperature: 37 C.
Protocol: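 MPS profiling in S. cerevisiae of the tFT-X12 degron library: putative degron peptides plus stable controls, 12 aa, fused to the C-terminus of a sfGFP-mCherry timer. Cells are FACS-sorted into 8 mCherry/sfGFP bins and deep-sequenced. PSI runs from 0 (unstable) to 1 (stable). Backgrounds are wild type, das1Δ and doa10Δ at 30 °C, and wild type, das1Δ, cdc34-1 and cdc53-1 at 37 °C; 2-3 technical replicates each.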
SFVFLVRRWLFV was tested, and the protein stability index was 0.622 ± 0.023. SFYVCVPVLWLV showed a protein stability index of 0.407 ± 0.0054. Work on SGRAWRLRMHVI yielded a protein stability index of 0.757 ± 0.018. Sequence SGRFRAFVLRSM has a protein stability index of 0.7 ± 0.036. With SGRFRFVLLGLV the protein stability index was 0.632 ± 0.00071. SGVVWFYIFCLS was tested, and the protein stability index was 0.57 ± 0.015. For SINKLLILIKSI, the protein stability index was 0.629 ± 0.018. In the case of SIWVGSRFRWVV, the protein stability index is reported as 0.7748 ± 0.0015. Sequence SLCELRCLLRVG has a protein stability index of 0.631 ± 0.0023. With SLCSSVQVWSVV the protein stability index was 0.732 ± 0.011. For SLLFPLPRPLLD, the protein stability index was 0.719 ± 0.016. SLRSRSLRCRLS showed a protein stability index of 0.749 ± 0.031. SPCLPRGVLFLA showed a protein stability index of 0.716 ± 0.005. For SPCLSWTLVLVL, the protein stability index was 0.407 ± 0.0077. Sequence SRLMLPLSPLVC has a protein stability index of 0.5021 ± 0.0044. In the case of SRPLYVMICTRV, the protein stability index is reported as 0.558 ± 0.018. SRSYNSPSLYVC was tested, and the protein stability index was 0.712 ± 0.0089. In the case of SRVCVLTGISCA, the protein stability index is reported as 0.6023 ± 0.0038. SSLAKFQLISTY gave a protein stability index of 0.508 ± 0.049. For SVFSFCLCVGVV, the protein stability index was 0.402 ± 0.011. For SVFWCFHVLFWS, the protein stability index was 0.5448 ± 0.0013. Sequence SVLCLFSRLRSV has a protein stability index of 0.736 ± 0.0017. Sequence SVPIAFYLLFFQ has a protein stability index of 0.648 ± 0.013. SVSQTSILDSRL was tested, and the protein stability index was 0.74121 ± 0.00058. SVVRCWVLLGVA showed a protein stability index of 0.303 ± 0.0057. SWELKWVYARVV gave a protein stability index of 0.674 ± 0.017. In the case of SYALGNVVGGSL, the protein stability index is reported as 0.748 ± 0.014. TCPFTIHRLKVG was tested, and the protein stability index was 0.7458 ± 0.0033. Work on TEHIIAFKASVN yielded a protein stability index of 0.71 ± 0.01. Work on TFRVLFSVALLV yielded a protein stability index of 0.3436 ± 0.0022. Sequence TGRLFVSLRVWY has a protein stability index of 0.467 ± 0.0072. For TLPIWLRVLIFG, the protein stability index was 0.456 ± 0.0082. For TLRINSPFYFLS, the protein stability index was 0.7509 ± 0.0024.

Same assay, conditions: genetic background: doa10 deletion; temperature: 30 C
In the case of SFVFLVRRWLFV, the protein stability index is reported as 0.136 ± 0.0077. For SFYVCVPVLWLV, the protein stability index was 0.136 ± 0.0076. In the case of SGRAWRLRMHVI, the protein stability index is reported as 0.263 ± 0.0029. SGRFRAFVLRSM was tested, and the protein stability index was 0.272 ± 0.019. With SGRFRFVLLGLV the protein stability index was 0.122 ± 0.023. Work on SGVVWFYIFCLS yielded a protein stability index of 0.254 ± 0.014. With SINKLLILIKSI the protein stability index was 0.0798 ± 0.019. Work on SIWVGSRFRWVV yielded a protein stability index of 0.134 ± 0.017. Work on SLCELRCLLRVG yielded a protein stability index of 0.471 ± 0.018. SLCSSVQVWSVV was tested, and the protein stability index was 0.5868 ± 0.0032. SLLFPLPRPLLD gave a protein stability index of 0.686 ± 0.014. Sequence SLRSRSLRCRLS has a protein stability index of 0.288 ± 0.0071. In the case of SPCLPRGVLFLA, the protein stability index is reported as 0.2729 ± 0.0022. SPCLSWTLVLVL was tested, and the protein stability index was 0.195 ± 0.0034. Sequence SRLMLPLSPLVC has a protein stability index of 0.2762 ± 0.0016. SRPLYVMICTRV was tested, and the protein stability index was 0.246 ± 0.0034. SRSYNSPSLYVC was tested, and the protein stability index was 0.0903 ± 0.0041. In the case of SRVCVLTGISCA, the protein stability index is reported as 0.387 ± 0.013. SSLAKFQLISTY showed a protein stability index of 0.267 ± 0.003. SVFSFCLCVGVV showed a protein stability index of 0.213 ± 0.014. SVFWCFHVLFWS showed a protein stability index of 0.327 ± 0.011. Work on SVLCLFSRLRSV yielded a protein stability index of 0.17 ± 0.0041. Sequence SVPIAFYLLFFQ has a protein stability index of 0.434 ± 0.013. For SVSQTSILDSRL, the protein stability index was 0.667 ± 0.018. With SVVRCWVLLGVA the protein stability index was 0.135 ± 0.0021. Work on SWELKWVYARVV yielded a protein stability index of 0.093 ± 0.0033. SYALGNVVGGSL was tested, and the protein stability index was 0.631 ± 0.025. Sequence TCPFTIHRLKVG has a protein stability index of 0.118 ± 0.018. TEHIIAFKASVN gave a protein stability index of 0.0901 ± 0.025. TFRVLFSVALLV showed a protein stability index of 0.1804 ± 0.00079. With TGRLFVSLRVWY the protein stability index was 0.302 ± 0.015. In the case of TLPIWLRVLIFG, the protein stability index is reported as 0.2762 ± 0.002. Sequence TLRINSPFYFLS has a protein stability index of 0.242 ± 0.011.

Same assay, conditions: genetic background: wild type; temperature: 30 C
In the case of SFVFLVRRWLFV, the protein stability index is reported as 0.133 ± 0.017. Work on SFYVCVPVLWLV yielded a protein stability index of 0.118 ± 0.015. SGRAWRLRMHVI gave a protein stability index of 0.269 ± 0.012. For SGRFRAFVLRSM, the protein stability index was 0.298 ± 0.035. SGRFRFVLLGLV showed a protein stability index of 0.156 ± 0.023. In the case of SGVVWFYIFCLS, the protein stability index is reported as 0.279 ± 0.043. SINKLLILIKSI was tested, and the protein stability index was 0.0738 ± 0.0087. Work on SIWVGSRFRWVV yielded a protein stability index of 0.134 ± 0.021. SLCELRCLLRVG was tested, and the protein stability index was 0.481 ± 0.018. SLCSSVQVWSVV was tested, and the protein stability index was 0.634 ± 0.037. SLLFPLPRPLLD showed a protein stability index of 0.672 ± 0.024. SLRSRSLRCRLS gave a protein stability index of 0.297 ± 0.0095. SPCLPRGVLFLA was tested, and the protein stability index was 0.297 ± 0.022. Sequence SPCLSWTLVLVL has a protein stability index of 0.203 ± 0.016. Sequence SRLMLPLSPLVC has a protein stability index of 0.313 ± 0.016. Sequence SRPLYVMICTRV has a protein stability index of 0.287 ± 0.018. With SRSYNSPSLYVC the protein stability index was 0.102 ± 0.016. In the case of SRVCVLTGISCA, the protein stability index is reported as 0.421 ± 0.011. SSLAKFQLISTY showed a protein stability index of 0.305 ± 0.016. With SVFSFCLCVGVV the protein stability index was 0.253 ± 0.033. Sequence SVFWCFHVLFWS has a protein stability index of 0.345 ± 0.022. SVLCLFSRLRSV showed a protein stability index of 0.19 ± 0.032. In the case of SVPIAFYLLFFQ, the protein stability index is reported as 0.456 ± 0.016. In the case of SVSQTSILDSRL, the protein stability index is reported as 0.675 ± 0.012. For SVVRCWVLLGVA, the protein stability index was 0.164 ± 0.026. For SWELKWVYARVV, the protein stability index was 0.0851 ± 0.0075. In the case of SYALGNVVGGSL, the protein stability index is reported as 0.645 ± 0.0065. In the case of TCPFTIHRLKVG, the protein stability index is reported as 0.137 ± 0.028. TEHIIAFKASVN gave a protein stability index of 0.104 ± 0.024. TFRVLFSVALLV was tested, and the protein stability index was 0.182 ± 0.021. TGRLFVSLRVWY was tested, and the protein stability index was 0.305 ± 0.006. For TLPIWLRVLIFG, the protein stability index was 0.29 ± 0.0033. Work on TLRINSPFYFLS yielded a protein stability index of 0.282 ± 0.022.

Same assay, conditions: genetic background: wild type; temperature: 37 C
In the case of SFVFLVRRWLFV, the protein stability index is reported as 0.159 ± 0.011. SFYVCVPVLWLV showed a protein stability index of 0.146 ± 0.028. In the case of SGRAWRLRMHVI, the protein stability index is reported as 0.459 ± 0.041. SGRFRAFVLRSM was tested, and the protein stability index was 0.56 ± 0.032. SGRFRFVLLGLV showed a protein stability index of 0.253 ± 0.0054. Work on SGVVWFYIFCLS yielded a protein stability index of 0.494 ± 0.023. With SINKLLILIKSI the protein stability index was 0.112 ± 0.069. For SIWVGSRFRWVV, the protein stability index was 0.344 ± 0.052. In the case of SLCELRCLLRVG, the protein stability index is reported as 0.606 ± 0.013. SLCSSVQVWSVV was tested, and the protein stability index was 0.716 ± 0.011. With SLLFPLPRPLLD the protein stability index was 0.7183 ± 0.005. With SLRSRSLRCRLS the protein stability index was 0.489 ± 0.031. With SPCLPRGVLFLA the protein stability index was 0.437 ± 0.0099. SPCLSWTLVLVL gave a protein stability index of 0.345 ± 0.0051. Sequence SRLMLPLSPLVC has a protein stability index of 0.465 ± 0.0065. For SRPLYVMICTRV, the protein stability index was 0.503 ± 0.022. SRSYNSPSLYVC was tested, and the protein stability index was 0.109 ± 0.0097. For SRVCVLTGISCA, the protein stability index was 0.572 ± 0.013. SSLAKFQLISTY showed a protein stability index of 0.46 ± 0.0088. SVFSFCLCVGVV was tested, and the protein stability index was 0.358 ± 0.0064. SVFWCFHVLFWS was tested, and the protein stability index was 0.4926 ± 0.0049. Work on SVLCLFSRLRSV yielded a protein stability index of 0.383 ± 0.011. With SVPIAFYLLFFQ the protein stability index was 0.575 ± 0.016. In the case of SVSQTSILDSRL, the protein stability index is reported as 0.7313 ± 0.0043. SVVRCWVLLGVA showed a protein stability index of 0.2377 ± 0.0011. Sequence SWELKWVYARVV has a protein stability index of 0.0902 ± 0.0089. SYALGNVVGGSL gave a protein stability index of 0.721 ± 0.022. For TCPFTIHRLKVG, the protein stability index was 0.218 ± 0.012. Sequence TEHIIAFKASVN has a protein stability index of 0.153 ± 0.028. For TFRVLFSVALLV, the protein stability index was 0.2319 ± 0.0022. Work on TGRLFVSLRVWY yielded a protein stability index of 0.442 ± 0.0058. TLPIWLRVLIFG gave a protein stability index of 0.426 ± 0.014. TLRINSPFYFLS gave a protein stability index of 0.53 ± 0.021.
